Laboratory results reported in paper PMC8660799, “Cryo-EM reveals unique structural features of the FhuCDB Escherichia coli ferrichrome importer” (Communications Biology, 2021).

Assays:
Conditions in all cases: both partners purified
[1] = biological target: T1, FhuCB with FhuB Q507A, T510A (Escherichia coli, UniProt P07821 1-265; P06972 1-660, Q507A | T510A, red-tris-NTA 2nd generation dye on the His-tag); test: MST; 40 nM FhuCB (wild type or FhuB mutant) in detergent, His-tag labelled with red-tris-NTA 2nd generation dye; serial dilution of 1.6 μM FhuD with substrate ferrichrome; with ATP-Mg; Monolith NT.115pico, 20% LED power, medium MST power
T1 construct: FhuC, ATPase subunit, Escherichia coli; as in Dm2; FhuB, membrane subunit, Escherichia coli, 660 residues; Mutant made on the FhuCB-pET15b construct by direct mutagenesis; also called Q507T510; source: E. coli BL21(DE3) C43, purified (TALON, Superose 6 gel filtration) in LMNG; not shown: His-tag, N-terminal, kept; copies: 2 + 1
T1 sequence (looked up) 1: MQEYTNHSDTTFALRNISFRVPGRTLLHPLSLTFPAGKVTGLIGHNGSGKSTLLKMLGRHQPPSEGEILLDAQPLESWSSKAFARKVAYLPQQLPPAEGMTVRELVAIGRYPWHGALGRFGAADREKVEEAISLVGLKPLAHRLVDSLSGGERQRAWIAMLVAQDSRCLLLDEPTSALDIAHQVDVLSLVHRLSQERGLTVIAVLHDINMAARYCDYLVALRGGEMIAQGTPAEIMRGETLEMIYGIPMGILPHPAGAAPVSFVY
T1 sequence (looked up) 2: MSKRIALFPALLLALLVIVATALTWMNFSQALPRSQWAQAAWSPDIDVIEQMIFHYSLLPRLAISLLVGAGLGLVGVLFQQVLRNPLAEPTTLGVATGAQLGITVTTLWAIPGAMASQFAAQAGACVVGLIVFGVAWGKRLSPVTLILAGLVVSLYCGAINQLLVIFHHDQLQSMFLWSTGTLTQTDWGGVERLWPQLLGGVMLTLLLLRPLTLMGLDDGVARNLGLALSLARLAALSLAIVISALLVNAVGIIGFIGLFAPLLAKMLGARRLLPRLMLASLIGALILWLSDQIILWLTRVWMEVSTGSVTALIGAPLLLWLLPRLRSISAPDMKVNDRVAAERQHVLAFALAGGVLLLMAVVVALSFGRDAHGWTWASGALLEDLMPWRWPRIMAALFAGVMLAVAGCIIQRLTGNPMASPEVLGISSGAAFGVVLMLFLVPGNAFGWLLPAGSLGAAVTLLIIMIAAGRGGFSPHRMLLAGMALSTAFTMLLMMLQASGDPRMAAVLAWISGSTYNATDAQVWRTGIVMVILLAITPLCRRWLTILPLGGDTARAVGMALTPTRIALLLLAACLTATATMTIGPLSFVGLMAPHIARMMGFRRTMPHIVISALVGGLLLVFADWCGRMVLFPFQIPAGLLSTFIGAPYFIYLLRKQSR

[2] = biological target: T2, FhuCB wild-type (Escherichia coli, UniProt P07821 1-265; P06972 1-660, red-tris-NTA 2nd generation dye on the His-tag); test: MST; 40 nM FhuCB in detergent, His-tag labelled with red-tris-NTA 2nd generation dye; serial dilution of 30 μM FhuD without substrate; no ATP-Mg; Monolith NT.115pico, 20% LED power, medium MST power
T2 construct: FhuC, ATPase subunit, Escherichia coli; whole operon cloned from the genome, FhuD gene deleted; thrombin site after the His-tag; FhuB, membrane subunit, Escherichia coli, 660 residues; also called FhuCB subcomplex; source: E. coli BL21(DE3) C43, purified (TALON, Superose 6 gel filtration) in LMNG; not shown: His-tag, N-terminal, kept; copies: 2 + 1
T2 sequence (looked up) 1: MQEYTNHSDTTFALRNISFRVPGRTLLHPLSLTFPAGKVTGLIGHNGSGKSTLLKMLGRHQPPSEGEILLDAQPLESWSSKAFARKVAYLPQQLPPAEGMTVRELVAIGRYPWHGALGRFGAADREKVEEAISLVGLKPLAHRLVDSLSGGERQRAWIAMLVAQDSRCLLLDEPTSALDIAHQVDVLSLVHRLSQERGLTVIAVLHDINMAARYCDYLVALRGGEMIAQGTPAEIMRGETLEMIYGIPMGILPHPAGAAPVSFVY
T2 sequence (looked up) 2: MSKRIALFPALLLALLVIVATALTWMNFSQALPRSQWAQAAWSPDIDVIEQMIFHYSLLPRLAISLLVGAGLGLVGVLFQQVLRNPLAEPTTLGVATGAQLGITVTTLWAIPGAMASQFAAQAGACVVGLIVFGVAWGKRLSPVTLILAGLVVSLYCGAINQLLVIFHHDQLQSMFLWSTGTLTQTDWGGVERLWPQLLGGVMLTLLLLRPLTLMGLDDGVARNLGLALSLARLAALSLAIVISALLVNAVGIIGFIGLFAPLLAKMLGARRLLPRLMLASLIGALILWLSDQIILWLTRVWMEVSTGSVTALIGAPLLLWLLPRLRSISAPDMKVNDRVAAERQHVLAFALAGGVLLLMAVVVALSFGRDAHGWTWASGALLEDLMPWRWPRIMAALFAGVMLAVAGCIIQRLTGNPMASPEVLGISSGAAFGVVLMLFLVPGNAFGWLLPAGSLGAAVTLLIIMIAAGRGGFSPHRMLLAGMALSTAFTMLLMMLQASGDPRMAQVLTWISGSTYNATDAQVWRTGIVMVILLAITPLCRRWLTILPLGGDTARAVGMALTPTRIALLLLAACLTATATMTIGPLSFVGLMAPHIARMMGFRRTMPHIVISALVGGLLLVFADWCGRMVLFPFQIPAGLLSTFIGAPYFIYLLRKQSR

[3] = biological target: T2, FhuCB wild-type; test: MST; 40 nM FhuCB in detergent, His-tag labelled with red-tris-NTA 2nd generation dye; serial dilution of 30 μM FhuD without substrate; with ATP-MgCl2; Monolith NT.115pico, 20% LED power, medium MST power

- Kd [1]: 79.2 nM
- Kd [2]: 1620 nM
- Kd [3]: 270 nM
B1: FhuD (natural protein, Escherichia coli)
chain: AAIDPNRIVALEWLPVELLLALGIVPYGVADTINYRLWVSEPPLPDSVIDVGLRTEPNLELLTEMKPSFMVWSAGYGPSPEMLARIAPGRGFNFSDGKQPLAMARKSLTEMADLLNLQSAAETHLAQYEDFIRSMKPRFVKRGARPLLLTTLIDPRHMLVFGPNSLFQEILDEYGIPNAWQGETNFWGSTAVSIDRLAAYKDVDVLCFDHDNSKDMDALMATPLWQAMPFVRAGRFQRVPAVWFYGATLSAMHFVRVLDNAIGGKA
notes: In 'FhuD-ferrichrome' the protein was loaded with the small molecule ferrichrome; also called FhuD-ferrichrome (when loaded with ferrichrome)
